Measured values: PMC11651300 (Journal of the American Society for Mass Spectrometry, 2024)

B1: Cholera toxin B (natural protein)
chain: TPQNITDLCAEYHNTQIYTLNDKIFSYTESLAGKREMAIITFKNGAIFQVEVPGSQHIDSQKKAIERMKDTLRIAYLTEAKVEKLCVWNNKTPHAIAAISMAN

Columns and labels:
[1] = target: Pyruvate kinase from rabbit (rabbit) (UniProt P11974); assay: native MS
[2] = target: the molecule itself; assay: native MS

Molecule | stoichiometry N [1] | stoichiometry N [2]
Pyruvate kinase from rabbit (from UniProt P11974 1-531) (enzyme) | 4 | 
B1 |  | 5
